Measurements published in PMC9985226, “A fully human connective tissue growth factor blocking monoclonal antibody ameliorates experimental rheumatoid arthritis through inhibiting angiogenesis” (BMC Biotechnology, 2023).

Assays:
[1] = target: T1, recombinant human connective tissue growth factor (CTGF) (Homo sapiens, UniProt P29279); test: cell-based or functional assay
[2] = target: T1, recombinant human connective tissue …; test: SPR; Biacore T200; CTGF amine-coupled on a CM5 chip; scFvs or IgG in running buffer PBS pH 7.4 flowed for 3 min at 10 µl/min, 5 min dissociation, regeneration with 1 M NaCl; conditions: both partners purified

T1 sequence (P29279 27-349): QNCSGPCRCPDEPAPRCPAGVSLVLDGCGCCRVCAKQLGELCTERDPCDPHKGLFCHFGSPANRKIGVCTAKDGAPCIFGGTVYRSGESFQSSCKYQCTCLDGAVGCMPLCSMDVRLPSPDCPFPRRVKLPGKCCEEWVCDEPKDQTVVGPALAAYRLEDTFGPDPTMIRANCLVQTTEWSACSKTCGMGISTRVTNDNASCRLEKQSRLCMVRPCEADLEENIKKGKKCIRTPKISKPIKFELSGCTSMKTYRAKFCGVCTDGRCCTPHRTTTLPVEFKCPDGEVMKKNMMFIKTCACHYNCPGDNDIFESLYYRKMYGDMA

| Binder | EC50 of inhibition of CTGF-induced HUVEC proliferation, CCK-8 assay, scFv 1-500 nM [1] [nM] | Kd [2] [nM] | koff [2] [s⁻¹] | kon [2] [M⁻¹ s⁻¹] |
| --- | --- | --- | --- | --- |
| anti-CTGF scFv B2 (scFv, V domains shown, VH of scFv B2; the classical (Gly4Ser)3 linker between VH and VL; VL of scFv B2; Order VH-linker-VL as in the library construction; Selected from a fully human phage library made from PBMCs of RA patients; also called parental scFv B2; source: E. coli (pET28a, IPTG induced), purified (Ni Sepharose)) VH: QVQLVQSGAEVKKPGESLKISCKGSGYKFTSYWIAWVRQMPGKGLEWMGIIYPGGSDTRYSPSFQGQVTISDDRSSSTTYLQWSSLKASDTAIYYCARSGELMDVWGQGTTVTVSS VL: SYVLTQPPSVSVSPGQTVSITCSGDKLGNKYASWYQQRPGQSPILVIYQDTKRPSGIPERFSGSNSGNTATLTISGTQAMDEADYYCQAWDSNTAFFGTGTKVTVL | 37.4 | 252 | 0.00574 | 22800 |
| mut-scFv B2 (scFv, V domains shown, VH of mut-scFv B2; as the VH of m2 with three changes in VH-CDR3; the classical (Gly4Ser)3 linker between VH and VL; VL as the VL of m2; source: E. coli (pET28a, IPTG induced), purified (Ni Sepharose)) VH: QVQLVQSGAEVKKPGESLKISCKGSGYKFTSYWIAWVRQMPGKGLEWMGIIYPGGSDTRYSPSFQGQVTISDDRSSSTTYLQWSSLKASDTAIYYCARLGGAMDVWGQGTTVTVSS VL: SYVLTQPPSVSVSPGQTVSITCSGDKLGNKYASWYQQRPGQSPILVIYQDTKRPSGIPERFSGSNSGNTATLTISGTQAMDEADYYCQAWDSNTAFFGTGTKVTVL | 27.5 | 1.96 | 0.00222 | 1.13e+06 |
| anti-CTGF IgG mut-B2 (antibody, V domains shown, heavy chain: VH of m3 with human IgG1 constant region; light chain: VL of m3 with antibody constant region; Human IgG1 format; also called full-length antibody IgG mut-B2; source: ExpiCHO, transiently expressed, purified from supernatant (Protein G Sepharose); copies: 2 + 2) VH: QVQLVQSGAEVKKPGESLKISCKGSGYKFTSYWIAWVRQMPGKGLEWMGIIYPGGSDTRYSPSFQGQVTISDDRSSSTTYLQWSSLKASDTAIYYCARLGGAMDVWGQGTTVTVSS VL: SYVLTQPPSVSVSPGQTVSITCSGDKLGNKYASWYQQRPGQSPILVIYQDTKRPSGIPERFSGSNSGNTATLTISGTQAMDEADYYCQAWDSNTAFFGTGTKLTVL |  | 0.782 | 0.00365 | 4.67e+06 |
